Measured values reported in publication PMC2423650 (Journal of Experimental Botany, 2008).

Biological target: the molecule itself
Test: SEC

Row | Protein | Kd [µM] | stoichiometry N | fold change of the dissociation constant against atToc33 [fold]
1 | atToc33-His (G-domain of atToc33, His-tagged) (domain or fragment, Arabidopsis thaliana, UniProt O23680 1-251, looked up) MGSLVREWVGFQQFPAATQEKLIEFFGKLKQKDMNSMTVLVLGKGGVGKSSTVNSLIGEQVVRVSPFQAEGLRPVMVSRTMGGFTINIIDTPGLVEAGYVNHQALELIKGFLVNRTIDVLLYVDRLDVYRVDELDKQVVIAITQTFGKEIWCKTLLVLTHAQFSPPDELSYETFSSKRSDSLLKTIRAGSKMRKQEFEDSAIAVVYAENSGRCSKNDKDEKALPNGEAWIPNLVKAITDVATNQRKAIHVD | 400 | 2 | 
2 | atToc33S/E-His (phospho-mimicking mutant of the atToc33 G-domain) (domain or fragment, Arabidopsis thaliana, UniProt O23680 1-251, looked up) MGSLVREWVGFQQFPAATQEKLIEFFGKLKQKDMNSMTVLVLGKGGVGKSSTVNSLIGEQVVRVSPFQAEGLRPVMVSRTMGGFTINIIDTPGLVEAGYVNHQALELIKGFLVNRTIDVLLYVDRLDVYRVDELDKQVVIAITQTFGKEIWCKTLLVLTHAQFSPPDELSYETFSSKRSDELLKTIRAGSKMRKQEFEDSAIAVVYAENSGRCSKNDKDEKALPNGEAWIPNLVKAITDVATNQRKAIHVD |  | 2 | ~10
